What was measured:
[1] = biological target: the molecule itself; assay: SEC; Superdex 200 5/150 GL, PBS pH 7.4 with 1 mM DTT, room temperature; low hPrx1 concentrations (e.g. 0.5 uM): peak at 5.2 min
[2] = biological target: the molecule itself; assay: SEC; Superdex 200 5/150 GL, PBS pH 7.4 with 1 mM DTT, room temperature; high hPrx1 concentrations (e.g. 20 uM): peak at 3.9 min

B1: human peroxiredoxin 1 (enzyme, UniProt Q06830 1-199, looked up)
chain: MSSGNAKIGHPAPNFKATAVMPDGQFKDISLSDYKGKYVVFFFYPLDFTFVCPTEIIAFSDRAEEFKKLNCQVIGASVDSHFCHLAWVNTPKKQGGLGPMNIPLVSDPKRTIAQDYGVLKADEGISFRGLFIIDDKGILRQITVNDLPVGRSVDETLRLVQAFQFTDKHGEVCPAGWKPGSDTIKPDVQKSKEYFSKQK
notes: human peroxiredoxin 1 (hPrx1), recombinant; The protein is an obligate homodimer; five dimers form a ring-shaped decamer; It was used in the reduced state, with 1 mM DTT in all measurements; also called hPrx1; human Prx1; source: E. coli BL21(DE3), purified from bacterial lysates; reduced with 10 mM DTT before all experiments
Question: For B1, which “stoichiometry N” value [1] is on record?
Answer: 2

Question: And the “stoichiometry N” value [2]?
Answer: 10

— publication PMC9100220, “Fluorescence Lifetime Phasor Analysis of the Decamer–Dimer Equilibrium of Human Peroxiredoxin 1” (International Journal of Molecular Sciences, 2022)
